This assay addresses T1, RoxP_HypProt_pET-22b.
T1 construct: also called RoxP_6
T1 single chain: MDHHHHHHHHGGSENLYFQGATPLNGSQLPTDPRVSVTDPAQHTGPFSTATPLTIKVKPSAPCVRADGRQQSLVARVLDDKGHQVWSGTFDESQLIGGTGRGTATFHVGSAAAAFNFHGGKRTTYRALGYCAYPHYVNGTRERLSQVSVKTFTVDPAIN
The assay can be described thus: indirect ELISA on recombinant RoxP orthologs, absorbance normalized (%).

B1: 2H2F3 (antibody, V domains shown)
VH: QVQLQQSGAELVRPGVSVKISCKGSGYTFTDYAMHWVKQSHAKSLEWIGIISTYYGNASYNQKFKGKATMTVDKSSSTAYMELARLTSEDSAIYYCARVPYYGSSYAMDYWGQGTSVTVSS
VL: DVLMTQTPLSLPVSLGDQASISCRSSQNIVHSDGNTYLEWYLQKPGQSPKLLIYKVSNRFSGVPDRFSGSGSGTDFTLKISRVEAEDLGVYYCFQGSHVPWTFGGGTKLEIK
notes: also called IgG-2H2F3-1; 2H2F3-1
B1: the binding result is recorded as “no binding (tested: 330 ng/ml)”.

(Values after patent US20240400656A1 (WASHINGTON UNIVERSITY, published 2024).)
